The source of these data is paper PMC4155686, “Oleoyl Coenzyme A Regulates Interaction of Transcriptional Regulator RaaS (Rv1219c) with DNA in Mycobacteria*” (The Journal of Biological Chemistry, 2014).

Series [1] deals with the molecule itself. As to the kind of experiment: small-angle X-ray scattering; protein alone in solution at 1 and 3 mg/ml, data extrapolated to infinite dilution; apparent molecular mass from I(0).
For the next series, the target named is T1, RaaS R140A (Mycobacterium tuberculosis, UniProt O86312 1-212, R140A).
T1 sequence: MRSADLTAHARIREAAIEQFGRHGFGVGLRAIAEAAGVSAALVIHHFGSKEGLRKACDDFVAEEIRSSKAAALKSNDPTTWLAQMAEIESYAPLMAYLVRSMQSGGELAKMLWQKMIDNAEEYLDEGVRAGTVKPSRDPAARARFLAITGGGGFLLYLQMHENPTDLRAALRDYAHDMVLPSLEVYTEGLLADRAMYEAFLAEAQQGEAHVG
As to the kind of experiment: fluorescence anisotropy; 4 nM DNA. As to conditions: protein: recombinant; chain copies: 2.

Another series addresses T2, RaaS Y174A (Mycobacterium tuberculosis, UniProt O86312 1-212, Y174A).
T2 sequence: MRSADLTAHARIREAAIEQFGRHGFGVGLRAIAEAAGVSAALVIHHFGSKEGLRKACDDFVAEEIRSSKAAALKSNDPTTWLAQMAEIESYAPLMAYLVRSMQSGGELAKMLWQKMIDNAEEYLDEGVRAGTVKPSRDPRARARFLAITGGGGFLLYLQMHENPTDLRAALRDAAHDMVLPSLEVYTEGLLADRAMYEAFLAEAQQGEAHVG
Put plainly: fluorescence anisotropy; 4 nM DNA; FA: 50 mM Tris-HCl pH 8.5, 150 mM NaCl, temperature not stated; EMSA: 50 mM Tris-HCl pH 8.0, 1 mM EDTA, 50 mM NaCl, 4% glycerol, sheared salmon sperm DNA (printed as 1 g per reaction), 10 min, room temperature. As to conditions: protein: recombinant; chain copies: 2.

The target of another series is T3, RaaS R144A (Mycobacterium tuberculosis, UniProt O86312 1-212, R144A).
T3 sequence: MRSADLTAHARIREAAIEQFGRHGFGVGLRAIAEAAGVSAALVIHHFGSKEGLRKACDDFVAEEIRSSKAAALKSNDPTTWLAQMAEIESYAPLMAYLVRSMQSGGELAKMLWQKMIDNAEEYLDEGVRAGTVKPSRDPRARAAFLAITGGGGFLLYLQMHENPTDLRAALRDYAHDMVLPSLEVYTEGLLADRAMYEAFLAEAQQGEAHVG
The description is as above. The settings on record: protein: recombinant; chain copies: 2.

B1: RaaS (Rv1219c) R144A mutant (natural protein)
chain: MRSADLTAHARIREAAIEQFGRHGFGVGLRAIAEAAGVSAALVIHHFGSKEGLRKACDDFVAEEIRSSKAAALKSNDPTTWLAQMAEIESYAPLMAYLVRSMQSGGELAKMLWQKMIDNAEEYLDEGVRAGTVKPSRDPRARAAFLAITGGGGFLLYLQMHENPTDLRAALRDYAHDMVLPSLEVYTEGLLADRAMYEAFLAEAQQGEAHVG
For orientation: stoichiometry N means a count of units in the complex or per binding partner. B1: the “stoichiometry N” value in series [1] is 2.

B2: RaaS (Rv1219c) Y174A mutant (natural protein)
chain: MRSADLTAHARIREAAIEQFGRHGFGVGLRAIAEAAGVSAALVIHHFGSKEGLRKACDDFVAEEIRSSKAAALKSNDPTTWLAQMAEIESYAPLMAYLVRSMQSGGELAKMLWQKMIDNAEEYLDEGVRAGTVKPSRDPRARARFLAITGGGGFLLYLQMHENPTDLRAALRDAAHDMVLPSLEVYTEGLLADRAMYEAFLAEAQQGEAHVG
Take B2: the “stoichiometry N” value in series [1] is 2.

B3: Pr14F/Pr14R (ATTO 647N) (dsDNA)
DNA 1: GGGATGAACGTACGTTTAATATCCTGAACATGCGTTCAG
DNA 2: GGGCTGAACGCATGTTCAGGATATTAAACGTACGTTCAT
Broadly, the Kd is a measure of binding affinity in units of concentration. As to B3, the Kd was determined as 654 ± 300 nM with RaaS R140A, 611 ± 120 nM with RaaS Y174A and 129 ± 70 nM with RaaS R144A.
